{
  "source": "paper PMC6173284",
  "biological_target": "His-tagged Vps5 dimer from Chaetomium thermophilum (Chaetomium thermophilum)",
  "test": "SEC-MALS",
  "data": [
    {"substance": "His-tagged Vps5 dimer from Chaetomium thermophilum (natural protein)", "values": [
      {"measurement": "stoichiometry N", "value": 2}
    ]}
  ]
}
